From US20260258115A1
Where a chain is given by its changes, count along the chain named.

B1: ADI-36671 (antibody, V domains shown)
VH: EVQLLESGGGLVKPGGSLRLSCAASGFTFSGYYMTWIRQAPEKGLEWVSYISGGSTYTNYADSVRGRFTISRDNARNSLYLQMNSLRAEDTAVYYCARDGGYGIGPLYWGQGSLVTVSS
VL: QPVLTQPPSVSGAPGQRVTISCTGSSSNIGAPFDVHWYQQLPGTAPKPLIYGNSNRPSGVPDRFSGSKSGTSASLAITGLQAEDEADYYCQSYDSSLGGYVFGTGTKLTVL
B2: ADI-41343 (antibody, V domains shown)
VH: EVQLVESGGGLVKPGGSLRLSCAASGFTFSSYYMNWVRQAPGKGLEWVSSISGGSSYISYADSVKGRFTISRDNAKNSLYLQMNSLRAEDTAVYYCARVDTPMVRGYYFDYWGQGTLVTVSS
VL: QSVLTQPPSVSGAPGRRVTISCTGSSSNIGAGYDVHWYQQLPGTAPKLLIFANSNRPSGVPDRFSGSKSGTSASLAITGLQAEDEADYYCQSYDSSLSGSVFGGGTKVTVL
B3: ADI-41317 (antibody, V domains shown)
VH: EVQLVESGGGLVQPGGSLRLSCEASRFKFSTFWMAWVRQAPGKGLEWVANIKQDGSETYYLDSVKGRFTISRDNAKNSLFLQMKSLRAEDTAVYYCAGLWWGDLENWFDPWGQGTLVTVSS
VL: QSVLTQPPSVSGAPGQRVTISCTGSSSNLGTGFDVHWYRQLPGTAPQLLIYGSTNRPSGVPDRFSGSKYGTSASLAITGLQAEDEADYYCQSYDSNLRAYVFGTVTKVTVL
B4: ADI-41258 (antibody, V domains shown)
VH: QVQLVQSGGGLVQRGGSLRLSCAASGFSFRSYAMSWVRQAPGKGLEWVSSISDSGDNTFYADSVKGRFSISRDNSRDTLYLQMNSLRAEDTAVYYCARGGYCSGGNCFPFDYWGQGTLVTVSS
VL: SYELMQLPSVSVSPGQTARITCSGDALPKQYGYWYQQKPGQAPVLVIYKDSERPSGIPERFSGSSSGTTVTLTISGVQAEDEADYYCQSADSGGTYVMFGGGTKLTVL
B5: ADI-41266 (antibody, V domains shown)
VH: QVQLQQSGPGLVKPSQTLSLTCAISGDSVSSNSAAWNWIRQSPSRGLEWLGRTYYRSKWYNDYAVSVKSRITINPDTSKNQFSLQLNSVTPEDTAVYYCARDLPQVDYFDGASFYFFDFWGQGTLVTVSS
VL: QPVLTQPPSVSVAPGQTASITCGGNIIGNKGVHWYQQKPGRAPVLVVYDDSDRPSGIPERFSGSNSGNTATLTISRVEAADEADYYCQVWDTGSHPVVFGGGTKVTVL
B6: ADI-41322 (antibody, V domains shown)
VH: QVQLVQSGAEVKKPGSSVRVSCKASGGSFSSYATSWVRQAPGQGLEWMGGIIPMYDAVNYAQKFQGRVTITADESTTTAYMELSSLRSEDTAVYYCARSSGYTGTNFFDYWGQGTLVTVSS
VL: DIQMTQSPSSVSASVGDRVTITCRASQDISSWLAWYQQKPGKAPKLLIYTASSLQSGVPSRFSGSGSGTDFTLTISRLQPEDFATYYCQQANSFPRVTFGGGTKVEIK
B7: ADI-41246 (antibody, V domains shown)
VH: EVQLLESGPGLVKPSETLSLTCIVSGGSISSYNWNWIRQPPGKGLEWIGYIYNSGSTNYNPSLKSRVTISVDTSKNQFSLKLSSVTAADTAVYYCARYFDYGSGGFDYWGQGTLVTVSS
VL: ETTLTQSPGTLSLSPGERATLSCRASQSVTSTYLAWYQQKPGQAPRLLIYGASSRATGIPDRFSGSGSGTDFTLTISRLEPEDFAVYYCQQFDSSLTFGGGTKVEIK
B8: ADI-41296 (antibody, V domains shown)
VH: EVQLVESGVEVKKPGESLKISCRGSGYTFYNYWIAWVRQKPGKGLEYMGTIYLDDSETIYSPSFQGEVTISADKSINTAYLQWNSLKASDTANYYCARQMDFYFDVWGRGTLVTVSS
VL: SYELMQPPSVSVSPGQTARITCSGDPLPRESAYWYQQKPGQAPVVIIFNDIERPLGIPERFSGSRSGTTVTLTISGAQAEDEADYYCQSADSRKTFVFGTGTKLTVL
B9: ADI-41320 (antibody, V domains shown)
VH: B8 VH with E1Q, E6Q, S25F, T28S, F29A, E57D, K74R
VL: B8 VL with S1Q, Y2S, E3V, M5T, I46V, E59A, T100P
B10: ADI-41310 (antibody, V domains shown)
VH: B8 VH with E1Q, E6Q, T28S, E57D
VL: B8 VL with M5T, I46V, E59G, T68A, V70A, S75N, T100A
B11: ADI-41268 (antibody, V domains shown)
VH: EVQLVESGGGLVKPGGSLRLSCVASGFGFTSYSMNWVRQAPGKGLEWVSSISASSTYIHYADSVKGRFTISRDNARNSLYLQMISLRADDTAVYYCSRDGPTYGSGVHVWGQGTMVTVSS
VL: QSALIQPVSVSGSPGQSITISCTGTRSDVGGYNYVSWYQQHPGKAPKLMIYEVRNRPSGVSDRFSGSKSGNTASLTISGLQAEDEGDYYCSSYTSSDTLFYVFGSGTKLTVL
B12: ADI-41288 (antibody, V domains shown)
VH: EVQLVESGGGLVQPGGSLRLSCAASGFTFSSYAMSWVRQAAGKGLEWVSAISGSGDDTFYADSVKDRFIISRDSSKRKVYLQMNSLRVEDTAVYYCAKTDIMVTFGGVVVDAYYFDHWGQGTLVTVSS
VL: ETTLTQSPGTLSLSPGERATLSCRASQFVFRSYLAWYQQRPGQPPRLLIYGASSRATGIPDRFSGRGSGTEFTLTISRLEPEDFAMYYCQHYDSSPPGTFGGGTKVEIK
B13: ADI-41340 (antibody, V domains shown)
VH: QVQLVQSGAEVKTPGSSVKVSCKASGGTFRSYPITWVRQAPGQGLEWMGTVIPVFDTVNYAPKFQGRVSITADESTNTAYMELSSLRSDDSAVYYCARDLGWLRPMTTVTSPHFDYWGQGTLVTVSS
VL: QSVLTQPASVSGSPGQSITISCTGTSSDVGGYDFVSWYQQHPGKAPKLMISEVTDRPSGVSNRFSGSKSGNTASLTISGLQAEDEADYYCTSYTSSRTYVFGTGTKLTVL
B14: ADI-41257 (antibody, V domains shown)
VH: QVQLVESGAEVKKPGSSVKVSCKASEGTFSSYGISWVRQAPGQGPEWMGEINPMFGTAKYAQKFQGRVTITVDESTSTADMELSSLTSEDTAVYYCAREFLGQCSETNCPTPSRHLDYWGQGTLVTVSS
VL: EIVMTQSPSSLSASVGDRVTITCRASRTISSYLNWYQQKPGKAPKLLIYATSNLQSGVPSRFSGSGSGADFTLTISSLQPEDFATYYCQQTYSTPGFGPGTKVDIK
B15: ADI-41238 (antibody, V domains shown)
VH: EVQLLESGGGLVKPGGSLRLSCAASGFTFRDYYMSWIRQAPGKGLEWVSYISSSSSYTEYADSVKGRFTISRDNAKKSLYLQMNSLRTEDTAVYYCARVITQAGTGTTYYMDVWGKGTTVTVSS
VL: QSVLTQPPSVSGAPGQRVTISCTGSSSNIGTGYDVHWYQQLPGTAPKLLIYANNNRPSGVPDRFSGSKSGTSASLAITGLQAEDEADYYCQSYDSSLSLVFGGGTKLTVL
B16: ADI-41294 (antibody, V domains shown)
VH: EVQLLESGGGLVQPGGSLRLSCAASGFTFSAYEMNWVRQAPGKGLEWVSYISSSGSNKHYADSVKGRFTISRDNAKNSLHLHMNSLRAEDTALYYCTRPHQEEWELLPNDAFDLWGQGTMVTVSS
VL: QSALTQPPSASGSPGQSVTISCTGTSTDVGAYTYVSWYQQHPGKAPKLIIYEVYKRPSGVPNRFFGSKSGNTASLTVSGLQAEDEADYYCSSYGGSNNFGLFGGGTKLIVL
B17: ADI-41251 (antibody, V domains shown)
VH: EVQLVESGGGLVKPGGSLRLSCAASGFTFSDYYMTWIRQAPGKGLEWVSNISGGSSYTNYADSVKGRFTISRDNAKNSVYLQMNSLRAEDTAVYYCARVGCSGGVCNFFLDYWGQGTLVTVSS
VL: B2 VL with R16Q, F51Y, A52D, S54T, S100Y, G104T
B18: ADI-41237 (antibody, V domains shown)
VH: EVQLVESGGGLVKPGGSLRLSCAASGFTFSDYYMNWIRQAPGKGLEWVSDISPSSSYTNYADSVKGRFTISRDNAKNSLYLQMNSLRAEDTAMYYCARRGSCTGGVCSFDYWGQGTLVTVSS
VL: B2 VL with S2P, V3G, R16Q, H36N, F51Y, A52D, Y88F, S100F, G104T
B19: ADI-41245 (antibody, V domains shown)
VH: QVQLVESGGGLVKPGGSLRLSCAASGFSFSAYYMSWIRQAPGKGLEWISNISGGSSYANYADSVEGRFTISRDNAKNSLYLQMNSLRAEDTAVYYCAREFQTYYYMDVWGKGTTVTVSS
VL: B2 VL with S2P, R16Q, D34E, F51Y, A52G, S54N, V108L
B20: ADI-41253 (antibody, V domains shown)
VH: EVQLVQSGPGLVKPSETLSLTCTVSGDSISSSDYSYYWGWIRQPPGKGLEWIASLSYSGKTYSQSSLKSRVIISVDTSKKQFSLKLSSVTAADTAVYYCAVTRCYVCTSEGDSFDMWGQGTMVTVSS
VL: DIVLTQTPGTLSLSPGERATLSCRASQSISGNYLAWYQHKPGQAPRLLIYGASTRATGIPDRFSGSGSGTDFPLTISRLEPEDFAVYYCQQYATSPYTFGQGTKVDIK
B21: ADI-41254 (antibody, V domains shown)
VH: EVQLVESGGGLVQSGGSLRLSCAASGFTFSSYEMNWVRQAPGKGLEWVSYTTNNGRTIYYADSVKGRFTISRDNAKNSLFLQMNGLRAEDTAVYYCARGIQFSRVDYAMDVWGQGTTVTVSS
VL: SYELTQPPSVSGTPGQRITISCSGSSSNIASNTVNWYQHLPGTAPKLLIYSDNQRPSGVPDRFSGSKSGTSASLAISGLQSEDEADYYCAIWDDSLNASYVFGTGTKLTVL
B22: ADI-41349 (antibody, V domains shown)
VH: EVQLLESGGGLVQPGRSLRLSCTGSGFTFGDYAMNWVRQAPGKGLEWVGLIRSKDYGGTTEFAASLKGRLTISRDDSKSIAYLQMHSLKTEDSAVYYCTRAHLTDYTDINGYQYYFDYWGQGSPVTVSS
VL: DIQMTQSPSSLSASVGDRVTITCQASQDISNFLNWYQQRPGKAPKLLIHDASNLETGVPSRFSGSGSRTEFTFTISSLQPEDIGTYYCQHYDNFPYTFGQGTKVEIK

Target: Respiratory Syncytial Virus fusion glycoprotein (RSV F) on RSV-A2 virus (Respiratory Syncytial Virus subtype A (RSV-A2))
Assay: cell-based or functional assay

With B1 the Neutralization IC50 (RSV subtype A) was 0.01 µg/mL.

Target: RSV prefusion F (preF), DS-Cav1 (Respiratory Syncytial Virus)
Assay: BLI, IgG on anti-human IgG sensor, 100 nM antigen

With B1 the Kd was 0.728 nM.

Target: RSV prefusion F (preF, DS-Cav1) (Respiratory syncytial virus)
Assay: BLI, IgG on sensor, 100 nM antigen

In order of falling Kd:
1. B3  48.2 nM
2. B12  8.99 nM
3. B22  6.25 nM
4. B5  4.06 nM
5. B14  3.81 nM
6. B13  3.51 nM
7. B8  3.35 nM
8. B10  3.32 nM
9. B9  3.2 nM
10. B7  3.08 nM
11. B6  2.98 nM
12. B20  1.11 nM
13. B15  1.03 nM
14. B4  0.968 nM
15. B18  0.794 nM
16. B21  0.776 nM
17. B19  0.775 nM
18. B2  0.721 nM
19. B17  0.593 nM
20. B11  0.581 nM
21. B16  0.512 nM
